In assay [1] the target is HLA-DR11 (DRB1*1101) (human). Put plainly: competition binding. Particulars: chains peptide; modification not given.
The target in assay [2] is HLA-DR4 (DRB1*0401) (human). Put plainly: competition binding. Conditions: chains peptide; modification not given.
The target in assay [3] is HLA-DR15 (DRB1*1501) (human). Put plainly: competition binding. Particulars: chains peptide; modification not given.
For assay [4], the target named is HLA-DRB5 (DRB5*0101) (human). Put plainly: competition binding. Particulars: chains peptide; modification not given.
In assay [5] the target is HLA-DRB3 (DRB3*0101) (human). Put plainly: competition binding. Particulars: chains peptide; modification not given.
The target of assay [6] is T1, HLA-DP401 (DPB1*0401) (human), P20036.
T1 chain 1: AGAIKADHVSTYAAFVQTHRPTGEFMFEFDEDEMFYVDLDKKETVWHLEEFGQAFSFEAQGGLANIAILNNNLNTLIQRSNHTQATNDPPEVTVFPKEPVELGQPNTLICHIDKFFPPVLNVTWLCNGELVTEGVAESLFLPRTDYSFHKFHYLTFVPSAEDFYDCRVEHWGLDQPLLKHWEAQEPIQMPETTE
T1 chain 2: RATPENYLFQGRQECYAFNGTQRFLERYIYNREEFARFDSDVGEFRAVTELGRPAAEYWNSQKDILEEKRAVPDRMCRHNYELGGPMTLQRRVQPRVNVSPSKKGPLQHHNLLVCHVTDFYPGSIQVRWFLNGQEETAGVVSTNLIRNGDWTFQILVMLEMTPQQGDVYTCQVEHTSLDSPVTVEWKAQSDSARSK
Put plainly: competition binding. Conditions: chains peptide; modification not given.

Assay [7] has as its target HLA-DR13 (DRB1*1301) (human). Put plainly: competition binding. Conditions: chains peptide; modification not given.
Assay [8] addresses HLA-DR1 (DRB1*0101) (human). Description: competition binding. Particulars: chains peptide; modification not given.
In assay [9] the target is HLA-DRB4 (DRB4*0101) (human). Description: competition binding. Particulars: chains peptide; modification not given.
In assay [10] the target is HLA-DR3 (DRB1*0301) (human). Description: competition binding. Particulars: chains peptide; modification not given.
Assay [11] has as its target T2, HLA-DR1 (DRB1*0101) (human).
T2 chain 1: not shown
T2 chain 2: not shown
Put plainly: competition ELISA, purified HLA II; tracer biotinylated HA 306-318. A general note: An ELISA detects its analyte on a solid surface through an enzyme-linked reagent.

Assay [12] concerns the target T3, HLA-DR4 (DRB1*0401) (human).
T3 chain 1: not shown
T3 chain 2: not shown
Described as above.

The target of assay [13] is T4, HLA-DR11 (DRB1*1101) (human).
T4 chain 1: not shown
T4 chain 2: not shown
The assay is described as above.

Assay [14] addresses T5, HLA-DRB5 (DRB5*0101) (human).
T5 chain 1: not shown
T5 chain 2: not shown
The assay is described as above.

Assay [15] deals with T6, HLA-DR7 (DRB1*0701) (human).
T6 chain 1: not shown
T6 chain 2: not shown
Put plainly: competition ELISA, purified HLA II; tracer biotinylated YKL.

Assay [16] concerns the target T7, HLA-DR15 (DRB1*1501) (human).
T7 chain 1: not shown
T7 chain 2: not shown
Description: competition ELISA, purified HLA II; tracer biotinylated A3 152-166.

Assay [17] concerns the target T8, HLA-DRB4 (DRB4*0101) (human).
T8 chain 1: not shown
T8 chain 2: not shown
Description: competition ELISA, purified HLA II; tracer biotinylated E2/E168.

For assay [18], the target named is HLA-DP402 (DPB1*0402) (human), P20036. Put plainly: competition binding. Particulars: chains peptide; modification not given.
Assay [19] has as its target HLA-DR7 (DRB1*0701) (human). Description: competition binding. Conditions: chains peptide; modification not given.
The target in assay [20] is T9, HLA-DR13 (DRB1*1301) (human).
T9 chain 1: not shown
T9 chain 2: not shown
Description: competition ELISA, purified HLA II; unlabeled peptide against its own biotinylated tracer.

Assay [21] concerns the target T10, HLA-DR3 (DRB1*0301) (human).
T10 chain 1: not shown
T10 chain 2: not shown
Put plainly: competition ELISA, purified HLA II; tracer biotinylated MT 2-16.

Among the data in US20060110401A1, “Mixture of peptides from c and ns3 proteins of the hepatitis c virus and applications thereof” (priority 2002, published 2006) are IC50 values, retold here.

No end group written: not given here.

A word on the IC50: it is the point on the concentration scale where inhibition reaches its midpoint. As for AQGYKVLVLNPSVAATLGFGAYMSKAHGID [18N 1246-1275], the IC50 in assay [1] is 40 nM; in assay [2], 5 nM; in assay [3] it was 58 nM; in assay [4], 1250 nM; in [5] it was more than 30000 nM; in assay [6] it was more than 100000 nM. For the same molecule, the values for the 50% inhibitory concentration (IC50) in assay [7] and in assay [8] were 900 nM and 1 nM, respectively.

For the molecule DPNIRTGVRTITTGSPITYSTYGKFLADGG [19N 1275-1304], the IC50 in assay [9] was 3500 nM; in assay [10] it was more than 100000 nM; in assay [2], 500 nM; in [3] it was 550 nM; in [5] it was 150 nM; in assay [7], more than 100000 nM. Besides, the concentration for half-maximal inhibition (IC50) in assay [8] is 150 nM.

As for TRGLLGCIITSLTGRDKNQV (modifications not checked) [9N 1036-1055, P26664 1036-1055], the half-inhibitory concentration (IC50) was 51 nM in [11]; 950 nM in assay [12]; 700 nM in assay [13]; 53 nM in assay [14]; 2600 nM in assay [15]; 5500 nM in assay [16]. In addition, the IC50 in assay [17] is 1000 nM.

Turning to KPGIYRFVAPGERPSGMFD [27N 1495-1513], the concentration for half-maximal inhibition (IC50) in [9] is 138 nM; in [18], more than 100000 nM; in [10], more than 100000 nM; in assay [2] it was 1250 nM; in assay [3], 150 nM; in assay [4], 2 nM. Besides, the concentration for half-maximal inhibition (IC50) is 40000 nM in assay [5], more than 100000 nM in assay [6], more than 100000 nM in assay [7] and 163 nM in assay [8].

For GREILLGPADGMVSKGWRLLAPITAYAQQTR [8N 1007-1037], the IC50 turned out to be 2 nM in assay [11]; 1 nM in [1]; 60 nM in assay [9]; 200 nM in [10]; 10 nM in assay [2]; 30 nM in assay [3]. The same molecule gave a 50% inhibitory concentration (IC50) in assay [7] of 1250 nM.

With KNQVEGEVQIVSTAAQTFLAT [10N 1052-1072], the IC50 in assay [1] turned out to be 200 nM; in assay [9] it was 400 nM; in assay [19], 7 nM; in assay [5] it was 10000 nM; in assay [8] it was 400 nM.

In the case of SSDLYLVTRHADVIPVRRRGDSRGSLL [13N 1127-1153], the IC50 in assay [1] was 17 nM; in assay [10], more than 100000 nM; in assay [19] it was 17 nM; in assay [2], 3500 nM; in assay [4] it was 500 nM; in [5] it was more than 10000 nM. In addition, the concentration for half-maximal inhibition (IC50) was more than 100000 nM in assay [6], 300 nM in assay [7] and 700 nM in assay [8].

For PQDVKFPGGGQIVGGVYLLPRRGPRLGVR [1C 19-47], the IC50 is 58 nM in assay [1]; 6000 nM in assay [9]; more than 100000 nM in assay [10]; 70000 nM in assay [2]; 9 nM in [4]; more than 100000 nM in assay [5]. This molecule also registered a half-inhibitory concentration (IC50) in assay [8] of 350 nM.

Turning to GHAVGIFRAAVCTRGVAKAVDF [15N 1174-1195], the IC50 in assay [6] was 17800 nM.

In [20], TERVRLVTRHIYNREE (not fully specified) [B1 21-36 (nonbiotinylated)] came in with an IC50 of 330 nM.

With VGGVYLLPRRGPRLGVRATRKTSERSQ [2C 31-57], the IC50 in assay [18] and in assay [6] was more than 100000 nM in each case.

In assay [8], IEEVALSTTGEIPFYGKAIPLEVIKG [22N 1362-1387] registered a 50% inhibitory concentration (IC50) of 33 nM.

For the molecule AAKLVALGINAVAYYRGLDVSVIPTSGDV [24N 1404-1432], the values for the 50% inhibitory concentration (IC50) in [18] and in assay [6] were 7040 nM and 32700 nM, respectively.

GCIITSLTGRDKNQV (modifications not checked) [9N 1041-1055]: the half-maximal inhibitory concentration (IC50) in [11] is 190 nM; in [12], 2900 nM; in [13], 2600 nM; in [14] it was 11 nM; in [21] it was 62500 nM; in assay [16] it was 525 nM. This molecule showed an IC50 in [17] of 65000 nM.

Take WAGWLLSPRGSRPSW (modifications not checked) [3C 93-107]: the IC50 in [11] stood at 6330 nM.

As for DAHFLSQTKQSGENL (modifications not checked) [29N 1569-1583], the half-inhibitory concentration (IC50) was determined as 950 nM in assay [11]; 10500 nM in [12]; 22 nM in assay [13]; 21000 nM in assay [14]; 3000 nM in assay [15]; 2800 nM in assay [16].

Take RSPVFTDNSSPPVVPQSFQVAHLHAPTGSGKSTK [17N 1206-1239]: the IC50 was 550 nM in [1]; 425 nM in [2]; 10000 nM in assay [3]; 350 nM in assay [4]; more than 100000 nM in assay [7].
